# Reference: publication PMC3733153 (Journal of Experimental Botany, 2013)
# T1: GST-GDI1(3D), phosphomimetic form GDI1 S45D S48D T52D (Arabidopsis, UniProt Q9SFC6 1-240, S45D | S48D | T52D)
# T1 sequence: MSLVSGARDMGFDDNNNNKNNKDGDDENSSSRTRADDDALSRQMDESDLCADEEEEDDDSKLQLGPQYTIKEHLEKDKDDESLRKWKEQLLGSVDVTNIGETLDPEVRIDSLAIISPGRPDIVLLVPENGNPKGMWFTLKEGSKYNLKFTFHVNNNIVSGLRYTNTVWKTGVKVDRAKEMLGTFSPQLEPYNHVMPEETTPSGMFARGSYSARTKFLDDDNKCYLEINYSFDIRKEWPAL
# B1: His-ROP2 (natural protein)
# chain: not shown
# B2: His-ROP6 (natural protein)
# chain: not shown
# B3: His-ROP10 (natural protein)
# chain: not shown
# Molecular target: T1, GST-GDI1(3D), phosphomimetic form GDI1 …
# Test: pull-down
row,Binder,binding result
1,B1,binds
2,B2,binds
3,B3,binds
